Assay [1] addresses soluble dimeric FcγRIIB-Fc fusion protein (extracellular domain of FcγRIIB fused to hinge-CH2-CH3 of human IgG2) (human) (UniProt P31994). Nature of the assay: SPR (BIAcore), Fc mutant in ch4-4-20, off rate relative to wild type. (SPR reads the build-up and loss of mass on a sensor chip optically.)
The target of assay [2] is soluble monomeric FcγRIIIA 158V (extracellular region joined to linker-AVITAG) (human) (UniProt P08637). Described as above.
The target in assay [3] is FcγRIIIA on natural killer cells of human donor PBMC (human) (UniProt P08637). Nature of the assay: cell-based or functional assay.
Chain of FcγRIIIA on natural killer cells of human donor PBMC (human) (P08637 17-254): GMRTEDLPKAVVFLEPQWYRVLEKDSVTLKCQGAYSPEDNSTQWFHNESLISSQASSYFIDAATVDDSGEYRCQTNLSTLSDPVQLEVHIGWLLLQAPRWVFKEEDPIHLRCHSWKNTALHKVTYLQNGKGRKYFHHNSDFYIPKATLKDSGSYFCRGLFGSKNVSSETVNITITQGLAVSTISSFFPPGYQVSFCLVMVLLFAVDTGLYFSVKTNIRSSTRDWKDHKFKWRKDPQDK
Assay [4] addresses soluble dimeric FcγRIIB-Fc fusion protein (extracellular domain of FcγRIIB fused to hinge-CH2-CH3 of human IgG2) (human) (UniProt P31994). Nature of the assay: ELISA. On the technique in general: In an ELISA, binding on a coated surface is turned into a signal by an enzyme label.
Assay [5] addresses soluble monomeric FcγRIIIA (extracellular region of FcγRIIIA joined to the linker-AVITAG sequence) (human) (UniProt P08637). As to the kind of experiment: ELISA.
Assay [6] has as its target soluble dimeric FcγRIIB-Fc fusion protein (extracellular domain of FcγRIIB fused to hinge-CH2-CH3 of human IgG2) (human) (UniProt P31994). As to the kind of experiment: SPR (BIAcore), Ab captured on BSA-FITC, separate fit 200/800 nM.
The target of assay [7] is soluble monomeric FcγRIIIA (extracellular region of FcγRIIIA joined to the linker-AVITAG sequence) (human) (UniProt P08637). The assay is described as above.
Chain of soluble monomeric FcγRIIIA (extracellular region of FcγRIIIA joined to the linker-AVITAG sequence) (human) (P08637 17-208): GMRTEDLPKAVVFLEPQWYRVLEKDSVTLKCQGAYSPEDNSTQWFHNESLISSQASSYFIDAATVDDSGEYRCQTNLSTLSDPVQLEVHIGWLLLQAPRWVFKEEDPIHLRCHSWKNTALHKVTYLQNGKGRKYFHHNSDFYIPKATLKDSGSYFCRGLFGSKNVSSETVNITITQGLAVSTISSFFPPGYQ
Assay [8] deals with FcγRIIIA (CD16A), V158 allotype (human) (UniProt P08637). As to the kind of experiment: BIAcore (as Table 27).
Chain of FcγRIIIA (CD16A), V158 allotype (human) (P08637 17-208 F176V limits assumed): as the sequence (P08637 17-208) above, with F160V counted along it
The target in assay [9] is FcγRIIIA (CD16A), F158 allotype (human) (UniProt P08637). As to the kind of experiment: BIAcore (as Table 27).
Chain of FcγRIIIA (CD16A), F158 allotype (human) (P08637 17-208 limits assumed): as the sequence (P08637 17-208) above
Assay [10] addresses FcγRIIB (CD32B) (human) (UniProt P31994). As to the kind of experiment: BIAcore (as Table 27).
The target of assay [11] is FcγRIIIA (CD16A), V158 allotype (human) (UniProt P08637). As to the kind of experiment: not stated; human FcRs.
For assay [12], the target named is FcγRIIIA (CD16A), F158 allotype (human) (UniProt P08637). As to the kind of experiment: not stated; human FcRs.
For assay [13], the target named is FcγRIIA (CD32A), H131 allotype (human) (UniProt P12318). Nature of the assay: not stated; human FcRs.
Chain of FcγRIIA (CD32A), H131 allotype (human) (P12318 34-217 limits assumed): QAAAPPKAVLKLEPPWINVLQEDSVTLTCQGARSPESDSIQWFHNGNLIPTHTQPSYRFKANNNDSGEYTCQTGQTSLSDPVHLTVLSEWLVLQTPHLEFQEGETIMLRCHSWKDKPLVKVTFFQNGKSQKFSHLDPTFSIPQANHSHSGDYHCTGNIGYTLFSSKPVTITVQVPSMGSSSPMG
Assay [14] has as its target FcγRIIB (CD32B) (human) (UniProt P31994). Nature of the assay: not stated; human FcRs.
The target in assay [15] is FcγRIIIA (CD16A), V158 allotype (human) (UniProt P08637). Nature of the assay: BIAcore.
In assay [16] the target is FcγRIIIA (CD16A), F158 allotype (human) (UniProt P08637). Nature of the assay: BIAcore.
The target in assay [17] is FcγRIIA (CD32A), H131 allotype (human) (UniProt P12318). Nature of the assay: BIAcore.
The target in assay [18] is FcγRIIB (CD32B) (human) (UniProt P31994). As to the kind of experiment: BIAcore.
Chain of FcγRIIB (CD32B) (human) (P31994 43-217 limits assumed): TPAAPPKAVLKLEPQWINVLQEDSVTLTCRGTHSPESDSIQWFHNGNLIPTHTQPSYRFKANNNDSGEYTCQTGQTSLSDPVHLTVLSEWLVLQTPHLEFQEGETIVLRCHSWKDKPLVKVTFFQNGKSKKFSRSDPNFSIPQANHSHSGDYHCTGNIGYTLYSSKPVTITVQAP

Chain of soluble dimeric FcγRIIB-Fc fusion protein (extracellular domain of FcγRIIB fused to hinge-CH2-CH3 of human IgG2) (human) (P31994 43-217): as the sequence (P31994 43-217 limits assumed) above
Chain of soluble monomeric FcγRIIIA 158V (extracellular region joined to linker-AVITAG) (human) (P08637 17-208 F176V): as the sequence (P08637 17-208) above, with F160V counted along it

Consider ch4-4-20 MgFc37 (K248M) (antibody), for which the Koff WT/Mut stood at 1.03 in [1] and 0.977 in assay [2]. Moreover, in assay [3], the Relative rate of lysis (ADCC, vs wild type ch4-4-20) was determined as 3.83.

As to “ch4-4-20 MgFc38 (K392T, P396L) (antibody)”, the figures for the Koff WT/Mut in assay [1] and in assay [2] were 2.3 and 1.64, respectively. Further, the Relative rate of lysis (ADCC, vs wild type ch4-4-20) in assay [3] was found to be 3.07.

With “ch4-4-20 MgFc39 (E293V, Q295E, A327T) (antibody)”, the Koff WT/Mut in [1] amounted to 1.3; in assay [2], 0.86. This substance registered a Relative rate of lysis (ADCC, vs wild type ch4-4-20) in [3] of 4.29.

On to “ch4-4-20 MgFc41 (H268N, P396L) (antibody)”, for which the Koff WT/Mut in assay [1] was determined as 1.04; in [2] it was 0.92. The substance also gave a Relative rate of lysis (ADCC, vs wild type ch4-4-20) in assay [3] of 2.24.

ch4-4-20 MgFc61 (A330V) (antibody) gave a Koff WT/Mut in assay [1] of 0.61.

Take ch4-4-20 MgFc62 (R292G) (antibody): the Koff WT/Mut in assay [1] was 0.67.

The substance “ch4-4-20 MgFc63 (S298N, K360R, N361D) (antibody)” yielded a Koff WT/Mut in [1] of 0.67.

Turning to ch4-4-20 MgFc64 (E233G) (antibody), in assay [1], the Koff WT/Mut came out at 0.54.

Regarding ch4-4-20 MgFc65 (N276Y) (antibody), the Koff WT/Mut in assay [1] worked out at 0.64.

On to “ch4-4-20 Mut10 (P396L, A330S, K288N) (antibody)”, for which the ELISA, OD amounted to 1.2 OD in assay [4] and 1 OD in [5]. Further, the Kd in assay [6] came to 41.3 nM. The ADCC, % in assay [3] came to 41%.

For “ch4-4-20 Mut14 (K288M, K334E) (antibody)”, the ELISA, OD in assay [4] turned out to be 0.13 OD. This substance also returned an ELISA, OD in assay [5] of 1.1 OD. Moreover, in [6], the Kd amounted to 95.6 nM and the koff is 0.089 s⁻¹. Also, in assay [7], the Kd was found to be 75.4 nM, the koff was 0.1 s⁻¹ and the kon came to 1.37e+06 M⁻¹ s⁻¹. The same substance displayed an ADCC, % in assay [3] of 28%.

ch4-4-20 Mut16 (F372Y) (antibody): the ELISA, OD in assay [4] worked out at 1.55 OD; in assay [5], 1 OD. Besides, the Kd in assay [7] stood at 84.8 nM. This substance also displayed an ADCC, % in assay [3] of 15%.

For the substance ch4-4-20 Mut18 (K326E) (antibody), the values for the ELISA, OD in assay [4] and in [5] were 1.25 OD and 1 OD, respectively. In addition, the Kd in assay [6] was 51.7 nM; in [7], 92 nM. Besides, the koff in assay [6] came to 0.043 s⁻¹; in assay [7], 0.112 s⁻¹. The same substance showed a kon in [7] of 1.23e+06 M⁻¹ s⁻¹. This substance also registered an ADCC, % in assay [3] of 28%.

Take “ch4-4-20 Mut19 (K334N, K246I) (antibody)”: the ELISA, OD in assay [5] is 0.75 OD. The substance further displayed a Kd in [6] of 45.3 nM. The ADCC, % in assay [3] was determined as 11%.

Regarding “ch4-4-20 Mut23 (K334E, R292L) (antibody)”, the ELISA, OD in assay [4] was determined as 0.1 OD. For the same substance, the ELISA, OD in [5] stood at 1.25 OD. Further, in assay [6], the Kd is 108 nM and the koff came out at 0.107 s⁻¹. In [7], the Kd was determined as 70.2 nM, the koff was 0.105 s⁻¹ and the kon came out at 1.43e+06 M⁻¹ s⁻¹. This substance also returned an ADCC, % in [3] of 25%.

Regarding “immunoglobulin with Fc variant D270E, G316D, R416G (antibody)”, the Koff WT/Koff mutant in [8] amounted to 2.18; in [9] it was 2.49; in [10], 0.78; in assay [15] it was 2.18; in assay [16] it was 2.49; in [17], 1.95. For the same substance, in assay [18], the Koff WT/Koff mutant is 0.78. Besides, the fold change vs wild-type affinity is 0.4 fold in [11], 0.1 fold in [12], 0.4 fold in assay [13] and -1.7 fold in [14].

Take “immunoglobulin with Fc variant D270E, K392T, P396L (antibody)”: the fold change vs wild-type affinity in [11] was 0.8 fold; in assay [13] it was 0.9 fold; in [14], -0.3 fold.

For the substance “immunoglobulin with Fc variant F243L, R292P, P396L (antibody)”, the fold change vs wild-type affinity in assay [11] is 5.3 fold; in assay [12] it was 2.4 fold; in [13], 0.4 fold; in assay [14], -1.6 fold.

For the substance “immunoglobulin with Fc variant F243L, R292P, V305I (antibody)”, the Koff WT/Koff mutant came out at 2.56 in assay [8]; 1.43 in assay [9]; 2.56 in [15]; 1.43 in [16]; 0.23 in assay [17]. For the same substance, the fold change vs wild-type affinity was 1.6 fold in assay [11], 0.4 fold in [12], -3.3 fold in [13] and -13.3 fold in [14].

With “immunoglobulin with Fc variant F243L, R292P, V305I, P396L (antibody)”, the results for the fold change vs wild-type affinity in [11], in [13] and in [14] were -3 fold, -0.3 fold and -1.6 fold, respectively.

“immunoglobulin with Fc variant P247L, D270E, N421K (antibody)”: the fold change vs wild-type affinity is 0.9 fold in assay [11], 1 fold in assay [13] and -0.7 fold in [14].

Take “immunoglobulin with Fc variant P396L (antibody)”: the Koff WT/Koff mutant turned out to be 1.27 in assay [8]; 1.73 in assay [9]; 2.58 in assay [10]; 1.27 in assay [15]; 1.73 in assay [16]; 1.63 in assay [17]. The same substance came in with a Koff WT/Koff mutant in assay [18] of 2.58. For the same substance, the fold change vs wild-type affinity in assay [11] was determined as 0.3 fold; in assay [12], 0.7 fold; in [13], 0.6 fold; in assay [14], 1.6 fold.

For “immunoglobulin with Fc variant R255L, D270E, P396L (antibody)”, the fold change vs wild-type affinity was 0.3 fold in assay [11], 0.7 fold in assay [12] and -0.1 fold in assay [14].

As to “immunoglobulin with Fc variant R292P (antibody)”, the fold change vs wild-type affinity in assay [12] was 0.6 fold; in [13], -0.5 fold; in assay [14] it was -2.7 fold.

As for “immunoglobulin with Fc variant S239D, A330L, I332E (control XmAb) (antibody)”, the fold change vs wild-type affinity in assay [11] worked out at 13.9 fold; in assay [12] it was 8.1 fold; in [13], 0 fold; in assay [14] it was 0.74 fold.

With “immunoglobulin with Fc variant S298A, E333A, K334A (control AAA) (antibody)”, the fold change vs wild-type affinity was 0.6 fold in [11], 0.1 fold in assay [12], -3.3 fold in assay [13] and -2.5 fold in assay [14].

As to “immunoglobulin with Fc variant Y300L (antibody)”, the Koff WT/Koff mutant was determined as 1.01 in [8]; 1.18 in assay [10]; 1.01 in [15]; 1.17 in assay [16]; 1.86 in assay [17]; 1.18 in assay [18]. The fold change vs wild-type affinity in assay [11] was found to be 0 fold; in assay [12] it was 0.2 fold; in assay [13] it was 1.9 fold; in [14], 0.2 fold.

For orientation: Kd means the free concentration of one partner at which half of the binding sites on the other are occupied at equilibrium, for simple one-to-one binding. High values mean weaker binding, low ones tighter binding. In general, koff refers to the rate constant with which the complex falls apart. Higher therefore signals fast dissociation. One may read the kon as a measure of how fast the partners come together. Read a low kon as slower complex formation.
